# Assay results from patent US8071348B2, “Protein tyrosine phosphatase substrate-trapping double mutant and uses thereof” (Albert Einstein College of Medicine of Yeshiva University, priority 2002, dated 2011).
# [ ]: non-standard residue; d: D form. F2Pmp = N[C@@H](Cc1ccc(C(F)(F)P(=O)(O)O)cc1)C(=O)O
# T1: EGFR^988-998 peptide, DADEpYLIPQQG (Homo sapiens, UniProt P18031, D181A/Q262A)
# T1 construct: The catalytic domain of PTP1B (residues 1 to 321) was used for in vitro study; made in house; host or cells: E. coli (pT7-7 plasmids)
# T1 sequence (P18031 1-321 D181A/Q262A): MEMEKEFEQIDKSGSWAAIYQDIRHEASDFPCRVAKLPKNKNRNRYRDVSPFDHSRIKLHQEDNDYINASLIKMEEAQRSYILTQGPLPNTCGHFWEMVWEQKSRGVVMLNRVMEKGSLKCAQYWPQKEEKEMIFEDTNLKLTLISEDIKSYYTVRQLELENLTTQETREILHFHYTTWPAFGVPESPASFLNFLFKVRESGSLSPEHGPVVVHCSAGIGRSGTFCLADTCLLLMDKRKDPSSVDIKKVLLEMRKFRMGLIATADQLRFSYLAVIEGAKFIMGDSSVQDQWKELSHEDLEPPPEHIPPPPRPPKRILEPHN
# B1: PTP1B/D181A/Q262A, catalytic domain (residues 1 to 321) (enzyme, human, UniProt P18031 1-321, looked up)
# chain: T1 sequence (P18031 1-321 D181A/Q262A)
# notes: range 1-321; Used in vitro (ITC, kinetics); also called PTP1B substrate-trapping double mutant
# Legend:
# [1] = biological target: T1, EGFR^988-998 peptide, DADEpYLIPQQG; assay: Kinetic constants for PTP1B-catalyzed hydrolysis of pTyr-containing EGFR988-998 peptide; assay type: biochemical; details: EGFR988-998 peptide as substrate
# Procedure, shortened: (§1)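 PTP1B catalytic domain (residues 1–321), wild-type or mutant, expressed in E. coli. Continuous assay at 25° C., pH 7.0, in 50 mM 3,3-dimethylglutarate with 1 mM EDTA (ionic strength 0.15 M). Dephosphorylation followed by absorbance increase at 282 nm or fluorescence at 305 nm to obtain kcat and Km.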
# [2] = test system: EGFR^988-998 peptide, DADEpYLIPQQG; assay: as above; assay type: biochemical; details: EGFR988-998 peptide as substrate; 25° C. and pH 7.0
# Procedure, shortened: as §1
# [3] = test system: EGF receptor; assay: Substrate protection: EGF receptor tyrosine phosphorylation in COS1 cells expressing PTP1B forms (anti-pTyr Western blot); assay type: cell-based, Monkey; details: COS1 cell lysates, anti-pTyr immunoblot (FIG. 4)
# Method: FIG. 4 sets forth Western blots (WB) that show the level of tyrosine phosphorylation in the epidermal growth factor receptor (EGFR) upon expression of the wild-type and mutant PTP1Bs (4 μg plasmid/60 mm dish) in COS1 cells. Samples (50 μg total protein) were taken from the lysates of COS1 cells transfected with 4 μg of pJ3H plasmids expressing HA-tagged wild-type PTP1B, D181A, C215S, D181A/Q262A, or D181A/C215S. These samples were loaded into each lane for SDS-PAGE electrophoresis, and transferred onto a nitrocellulose membrane. The proteins on the membrane were first immunoblotted with anti-pTyr HRP conjugate (upper panel). The membrane was then stripped and re-probed with anti-hemagglutinin (anti-HA) HRP conjugate (lower panel).
# The hemagglutinin-tagged (HA-tagged) full-length human wild-type PTP1B in pJ3H expression vector was a gift from Dr. Chemoff (30). The HA-tagged PTP1B mutants, C215S, D181A, D181A/C215S, and D181A/Q262A, were generated by PCR reactions, according to the standard procedure of the Quick-Change™ site-directed mutagenesis kit (Stratagene), using pJ3H-HA-PTP1B as a template. All mutations were verified by DNA sequencing.
# Monkey kidney COS1 cells (ATCC: CRL-1650) were maintained in Dulbecco's modified Eagle's minimum essential medium (DMEM), supplemented with 10% fetal bovine serum (Life Technologies, Inc.), penicillin (50 units/ml), streptomycin (50 μg/ml), and L-glutamine (2 mM) under a humidified atmosphere containing 5% CO2. In transient transfection experiments, COS1 cells were inoculated at a density of 2×10^5 cells/60-mm dish, and grown overnight in DMEM containing 10% fetal bovine serum. Transfection was performed using LipoTAXI^R according to the manufacturer's recommendations (Stratagene, Cedar Creek, Tex.). Each transfection assay included 4 μg of purified DNA mixed with LipoTAXI^R in a 1:5 DNA:lipid ratio per 60-mm dish of cells. Following transfection, the cells were exchanged to normal culture medium, and maintained for 44 to 48 h at 37° C. and 5% CO2. The efficiency of transfection, as assessed by 5-bromo-4-chloro-3-indolyl-β-D galactoside (X-Gal) staining of pCMV-β-gal-transfected (β-Gal staining kit, Invitrogen) COS cells, was 25%.
# The transfected cells (treated with or without EGF) were lysed with “lysis buffer” containing 50 mM Tris-HC1 (pH 7.5), 5 mM EDTA, 150 mM NaCl, 10 mM sodium phosphate, 10 mM sodium fluoride, 5 mM iodoacetic acid, 1 mM benzamidine, 1% Triton X-100, 10 μg/ml leupeptin, and 5 μg/ml Aprotinin. Lysate protein concentration was estimated using Bio-Rad protein assay reagent (Bio-Rad, Hercules, Calif.).
# For immunoprecipitation, 1 mg of cell lysate was immunoprecipitated overnight with 30 μl of agarose-conjugated anti-hemagglutinin antibody at 4° C. Immunocomplexes were washed four times with the cell lysis buffer, and boiled for 5 min in SDS-PAGE sample buffer. Proteins in the cell lysate were separated by 8% SDS-PAGE under reducing conditions, according to the method of Laemmli (31), followed by blotting onto nitrocellulose membranes (Protran, Schleicher & Schuell). The nitrocellulose membranes were blocked with 5% non-fat dry milk in Tris-buffered saline/Tween (TBST) buffer (20 mM Tris-HC1, 150 mM NaCl, 0.1% Tween-20; pH 7.6) for 1 h at 25° C.
# Thereafter, blots were incubated overnight with primary antibodies diluted in TBST containing 5% non-fat dry milk at 4° C. […]
molecule,measurement,setting,value
B1,"kcat, fold lower than D181A",[1],24 fold
same,Km,[2],51 ± 4 µM
same,kcat,[2],(2.7 ± 0.1) × 10^−3 s^−
same,level of pTyr in the EGF receptor / enhancement of EGF receptor phosphorylation,[3],most pronounced
same,"protection of phosphorylated EGF receptors, fold better than D181A",[3],more than 3 fold
